In patent publication US20210363241A1:

Key:
[1] = molecular target: Human CD226 on the cell surface of stably transfected HEK 293 cells (human) (UniProt Q15762); test: flow cytometry on HEK 293 cells expressing human CD226, control IgG (denominator of the ratio)
[2] = molecular target: Cynomolgus monkey CD226 on the cell surface of stably transfected HEK 293 cells (cynomolgus monkey); test: flow cytometry on HEK 293 cells expressing cynomolgus CD226, control IgG (denominator of the ratio)
Cynomolgus monkey CD226 on the cell surface of stably transfected HEK 293 cells (cynomolgus monkey), sequence (chain, as listed by the source): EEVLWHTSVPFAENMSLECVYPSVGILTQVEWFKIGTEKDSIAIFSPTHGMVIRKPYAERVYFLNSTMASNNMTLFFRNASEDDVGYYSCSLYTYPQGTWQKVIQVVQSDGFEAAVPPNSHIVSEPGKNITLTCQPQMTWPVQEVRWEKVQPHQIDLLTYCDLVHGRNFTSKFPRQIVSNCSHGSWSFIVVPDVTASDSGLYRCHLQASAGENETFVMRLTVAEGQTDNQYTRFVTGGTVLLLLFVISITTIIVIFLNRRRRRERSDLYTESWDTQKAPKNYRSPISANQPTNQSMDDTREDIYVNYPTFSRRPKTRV

Human CD226 on the cell surface of stably transfected HEK 293 cells (human), sequence (Q15762 19-336 limits assumed): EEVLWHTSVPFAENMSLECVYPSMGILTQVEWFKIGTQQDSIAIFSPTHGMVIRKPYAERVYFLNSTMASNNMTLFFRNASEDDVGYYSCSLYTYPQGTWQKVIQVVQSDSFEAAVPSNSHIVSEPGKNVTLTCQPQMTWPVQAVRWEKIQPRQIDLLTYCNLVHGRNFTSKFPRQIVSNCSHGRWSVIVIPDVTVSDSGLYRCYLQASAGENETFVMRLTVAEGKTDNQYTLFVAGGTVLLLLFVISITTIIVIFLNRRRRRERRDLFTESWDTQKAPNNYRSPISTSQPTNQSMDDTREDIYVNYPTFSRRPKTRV

MFI [1]: 8.98
MFI [2]: 3.94
Substance: Control human IgG1 (antibody)
